Target: Measles virus fusion protein (F) ectodomain, prefusion-stabilized with E170G and E455G (FECT 2M) (Measles virus strain Ichinose-B95a)
Assay: cryo-EM structure

Q: For “Measles virus fusion protein (F) ectodomain, prefusion-stabilized with E170G and E455G (FECT 2M) (domain or fragment)”, which stoichiometry N is on record?
A: 3

Source: paper doi:10.1101/2025.09.09.675230
